Consider two molecules from patent publication US20250297018A1, “IL-18BP ANTAGONIST ANTIBODIES AND THEIR USE IN MONOTHERAPY AND COMBINATION THERAPY IN THE TREATMENT OF CANCER” (Compugen Ltd., priority 2022, published 2025).

The test system of one series is B16/Db-hmgp100 melanoma. Description: Syngeneic B16/Db-hmgp100 mouse tumor model. The conditions noted are these: anti-PVRIG combination study, vs isotype control mAbs. Format: in vivo. How it is done: B16/Db-hmgp100 cells were kindly provided by Dr. Hanada et al. (HHS agency) and were licensed from NIH. B16/Db-hmgp100 cells were generated by double transduction of B16F10 with H-2 Db and a retrovirus that encodes chimeric mouse gp100 that is comprised of the human gp10025-33 and the rest of mouse gp100. Cells were cultured in RPMI 1640 (Biological Industries, 01-100-1A) with 10% FBS (Biological Industries, 04-127-1A), and 100 μg/mL penicillin/streptomycin (Biological Industries, 03-031-1B), 1% Glutamax (Life technologies, 35050-038, 1% Sodium pyruvate (Biological Industries, 03-042-1B), 0.01% 2-mercaptoethanol (Life technologies, 31350-010, 10 μg/ml Blasticidin (InvivoGen, ant-bl-05). 1×10^5 B16/Db-hmgp100 cells subcutaneously into the back right flank of mice. […]
At day 4 post tumor inoculation mice were treated with mAbs (as detailed below) injected on day 4, 7, 11, 14, 18 and 21 post inoculation. Tumor growth was measured with caliper every 2-3 days. […]
Two-way ANOVA with repeated measures, followed by two-way ANOVA with repeated measures for selected pairs of groups using JMP (Statistical Discoveries™) software. Analyses of tumor growth measurements were performed by comparing tumor volumes measured on the last day on which all study animals were alive. Statistical differences in percentage of mice tumor free were determined by a Log Rank Mantel-Cox test. […]

The next series has as its target T1, IL18-BP (Mus musculus, UniProt Q9Z0M9).
T1 sequence (Q9Z0M9 29-193): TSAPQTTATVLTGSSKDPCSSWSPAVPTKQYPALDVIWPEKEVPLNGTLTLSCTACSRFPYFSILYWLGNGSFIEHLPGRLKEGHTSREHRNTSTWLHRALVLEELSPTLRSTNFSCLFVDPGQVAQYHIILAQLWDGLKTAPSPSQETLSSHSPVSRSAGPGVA
The conditions noted are these: cited from earlier work.

Series [1] can be described thus: MC38ova tumor-bearing mice treated with anti-mIL18BP or engineered mIL-18: weight, serum cytokines, spleen. The class given is in vivo, mouse. As to the method:
Experiments were performed in C57Bl/6 (female, 6-8 wk, Envigo). Mice were anesthetized with 10% Ketamine and 10% Xylazine mixture injected intraperitoneal. Next, mice were inoculated with MC38ova cells (1.2×10^6) subcutaneously to the right flank in 50 μl/mice.
Spleens were harvested from mice 24 hours after the 4th treatment and weighed. For IL15 experiments, mice were treated with a single dose of 0.5 μg, 1.5 μg of IL15, or with a mix of 0.5 μg IL15 and 2.33 μg IL15R.

B1: BOJ-5G4-F4: Anti PVRIG mAb 407 mAb mouse IgG1 (antibody, V domains shown)
VH: QVQLQQSGAELAKPGSSVMISCKASGYTFTNYAVHWIKQTTGQALEWTGYIAPGSGVTKYNEKFKGKATLTVDKSSTTAYMQLSSLTPVDTAVYYCASGTTRFAYWGQGTLVTVSS
VL: DIVLTQSPALAVSLGQRATISCRASQSVSLSSYNLMQWYQQKPGQEPKILIYDASNLPSGIPARFSGSGSGTDFTLTIDPVQADDIATYYCQQSKDDPLTFGSGTKLEIK
Turning to B1, the Tumor growth result in the series on B16/Db-hmgp100 melanoma is given as “comparable tumor growth to mice treated with isotype control mAbs”.

B2: Engineered IL-18: engineered IL-18, sequence from US 20190070262A1, listed therein as mCS2 (SEQ ID NO: 61) (protein)
chain: HFGRLHCTTAVIRNINDQVLFVDKRQPVFEDMTDIDQSASEPQTRLIIYAYGDSRARGKAVTLSVKDSKMSTLSCKNKIISFEEMDPPENIDDIQSDLIFFQKRVPGHNKMEFESSLYEGHFLACQKEDDAFKLILKKKDENGDKSVMFTLTNLHQSHHHHHH
As to B2, in the series with IL18-BP, the “Binding to IL18-BP” value is listed as “shown not to bind IL18-BP”. In series [1] (4 hours after the 4th treatment, 0.32 mg/kg SC), the “Serum levels of IFNg, TNFa, MCP1 and IL6” value is “elevated serum levels of IFNg, TNFa, MCP1 and IL6”. Further, the “Serum levels of IL18” value in series [1] (4 hours after the 4th treatment, detection identifies also engineered IL18) is “very high serum levels of IL18”; in series [1] (by 24 hours after the 4th treatment), “returned to baseline”. The “Serum levels of IFNg” value in series [1] (24 hours after the 4th treatment) is listed as “elevated serum levels of IFNg”. Moreover, the “Spleen enlargement compared to control” value in series [1] (24 hours after the 4th treatment, average) was found to be 4.9 folds.
